The record followed here is patent US20220177587A1, “METHODS AND USES OF VARIANT CD80 FUSION PROTEINS AND RELATED CONSTRUCTS” (Alpine Immune Sciences, Inc., priority 2018, published 2022).

Read-outs that look alike come from different tables or passages of the source.

Assay [1] deals with CD28 (human) (UniProt P10747).
The target in assay [2] is PD-L1 (human) (UniProt Q9NZQ7).
Target sequence in this assay (Q9NZQ7 19-290): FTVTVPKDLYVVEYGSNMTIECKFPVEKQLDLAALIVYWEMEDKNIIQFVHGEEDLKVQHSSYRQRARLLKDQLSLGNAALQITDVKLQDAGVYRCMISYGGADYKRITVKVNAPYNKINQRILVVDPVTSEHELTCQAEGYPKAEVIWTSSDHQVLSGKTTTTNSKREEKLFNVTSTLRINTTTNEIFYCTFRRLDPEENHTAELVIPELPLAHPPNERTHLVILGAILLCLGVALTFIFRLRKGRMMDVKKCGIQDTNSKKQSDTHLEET
For assay [3], the target named is CD28 (human) (UniProt P10747). The source holds these as a separate data set.
Assay [4] concerns the target CD28 (human) (UniProt P10747). As to the kind of experiment: flow cytometry, HEK293 cells transfected with full-length human CD28, PE anti-human Fc.
Assay [5] addresses human CTLA-4 (human) (UniProt P16410). As to the kind of experiment: flow cytometry, HEK293 cells transfected with full-length human CTLA-4, PE anti-human Fc.
Target sequence in this assay (P16410 36-223): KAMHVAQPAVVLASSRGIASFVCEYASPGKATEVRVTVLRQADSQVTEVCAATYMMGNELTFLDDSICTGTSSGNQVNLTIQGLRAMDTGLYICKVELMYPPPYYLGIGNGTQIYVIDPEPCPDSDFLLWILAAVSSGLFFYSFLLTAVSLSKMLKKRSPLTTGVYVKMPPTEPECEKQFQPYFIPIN
The target of assay [6] is PD-L1 (human) (UniProt Q9NZQ7). Briefly: flow cytometry, HEK293 cells transfected with full-length human PD-L1, PE anti-human Fc.
Target sequence in this assay (Q9NZQ7 19-290): as the sequence (Q9NZQ7 19-290) above
For assay [7], the target named is CD28 (human) (UniProt P10747). This is another data set of the same source.
For assay [8], the target named is PD-L1 (human) (UniProt Q9NZQ7). This is another data set of the same source.
Target sequence in this assay (Q9NZQ7 19-290): as above
Assay [9] deals with PD-L1 (human) (UniProt Q9NZQ7). This is another data set of the same source.
Target sequence in this assay (Q9NZQ7 19-290): as above
For assay [10], the target named is CD28 (human) (UniProt P10747). The source holds these as a separate data set.
Assay [11] deals with PD-L1 (human) (UniProt Q9NZQ7). This is another data set of the same source.
Target sequence in this assay (Q9NZQ7 19-290): as above
Assay [12] has as its target CD28 (human) (UniProt P10747). The source holds these as a separate data set.
In assay [13] the target is PD-L1 (human) (UniProt Q9NZQ7). This is another data set of the same source.
Target sequence in this assay (Q9NZQ7 19-290): as above
In assay [14] the target is PD-L1 (human) (UniProt Q9NZQ7). As to the kind of experiment: flow cytometry, CHO cells expressing PD-L1.
For assay [15], the target named is PD-L1 (human) (UniProt Q9NZQ7). Briefly: flow cytometry, CHO cells stably expressing PD-L1.
The target of assay [16] is CD28 (human) (UniProt P10747). As to the kind of experiment: flow cytometry, Jurkat cells (CD28).
Assay [17] deals with CD28 (human) (UniProt P10747). As to the kind of experiment: flow cytometry, Jurkat cells (CD28). The source holds these as a separate data set.
Assay [18] addresses CD28 (human) (UniProt P10747). Briefly: flow cytometry, HEK293 cells transfected with human CD28.
For assay [19], the target named is human PD-L1 (huPD-L1), on stably transduced CHO cells (human) (UniProt Q9NZQ7). As to the kind of experiment: flow cytometry on CHO/huPD-L1 cells; MFI relative to WT CD80 (CD80 WT IgV-Fc = 1.0).
Assay [20] deals with CD28, endogenously expressed on Jurkat/IL2 reporter cells (human) (UniProt P10747). As to the kind of experiment: flow cytometry on Jurkat (CD28) cells; MFI relative to WT CD80 (CD80 WT IgV-Fc = 1.0).
Assay [21] has as its target human PD-L1 (huPD-L1), on stably transduced CHO cells (human) (UniProt Q9NZQ7). Briefly: flow cytometry on CHO cells stably expressing huPD-L1, 33.3 nM Fc fusion, PE anti-human Fc.
The target is the same in assay [22]. As to the kind of experiment: flow cytometry; ratio of MFI on CHO/huPD-L1 cells to MFI on Jurkat (CD28) cells.
Assay [23] concerns the target human CTLA-4 (huCTLA4), on stably transduced CHO cells (human) (UniProt P16410). As to the kind of experiment: flow cytometry on CHO cells stably expressing huCTLA4, 33.3 nM Fc fusion, PE anti-human Fc.
Assay [24] deals with CD28, endogenously expressed on Jurkat/IL2 reporter cells (human) (UniProt P10747). As to the kind of experiment: flow cytometry on Jurkat/IL2 reporter cells (endogenous CD28), 33.3 nM Fc fusion, PE anti-human Fc.
Assay [25] has as its target human CTLA-4 (huCTLA4), on stably transduced CHO cells (human) (UniProt P16410). As to the kind of experiment: flow cytometry on CHO/huCTLA4 cells; MFI relative to WT CD80 (CD80 WT IgV-Fc = 1.0).
In assay [26] the target is CD28 (human) (UniProt P10747). This is another data set of the same source.
The target in assay [27] is PD-L1 (human) (UniProt Q9NZQ7). As to the kind of experiment: flow cytometry, CHO cells stably expressing PD-L1. This is another data set of the same source.
Assay [28] deals with human CTLA-4 (human) (UniProt P16410). As to the kind of experiment: flow cytometry, CHO cells stably expressing CTLA4.
For assay [29] the target is unchanged. As to the kind of experiment: flow cytometry, CHO/CTLA4 cells; MFI over CD80 WT IgV-Fc.
Target sequence in this assay (P16410 36-223): as the sequence (P16410 36-223) above
The target in assay [30] is CD28 (human) (UniProt P10747). This is another data set of the same source.
Assay [31] concerns the target PD-L1 (human) (UniProt Q9NZQ7). The source holds these as a separate data set.
The target of assay [32] is PD-L1 (human) (UniProt Q9NZQ7). As to the kind of experiment: flow cytometry, CHO/PD-L1 cells; MFI over CD80 WT IgV-Fc.
In assay [33] the target is CD28 (human) (UniProt P10747). Briefly: flow cytometry, Jurkat cells (CD28); MFI over CD80 WT IgV-Fc.
The target of assay [34] is human CTLA-4 (human) (UniProt P16410). As to the kind of experiment: flow cytometry, transfected Expi293F cells.
Target sequence in this assay (P16410 36-223): as above
Assay [35] concerns the target PD-L1 (human) (UniProt Q9NZQ7). Briefly: flow cytometry, transfected Expi293F cells.
Assay [36] concerns the target PD-L1 (human) (UniProt Q9NZQ7). As to the kind of experiment: flow cytometry, HEK293 cells transfected with human PD-L1.
Assay [37] has as its target human CTLA-4 (human) (UniProt P16410). As to the kind of experiment: flow cytometry, HEK293 cells transfected with human CTLA-4; negative control.
Target sequence in this assay (P16410 36-223): as above
In assay [38] the target is CD28 (human) (UniProt P10747). As to the kind of experiment: flow cytometry, HEK293 cells transfected with human CD28; negative control.
For assay [39], the target named is PD-L1 (human) (UniProt Q9NZQ7). As to the kind of experiment: flow cytometry, HEK293 cells transfected with human PD-L1; negative control.
Assay [40] concerns the target human CTLA-4 (human) (UniProt P16410). As to the kind of experiment: flow cytometry, CHO cells expressing huCTLA4.
Target sequence in this assay (P16410 36-223): as above
In assay [41] the target is CD28 (human) (UniProt P10747). Briefly: flow cytometry, Jurkat/IL2 reporter cells (CD28).
In assay [42] the target is PD-L1 (human) (UniProt Q9NZQ7). As to the kind of experiment: flow cytometry, CHO cells expressing huPD-L1.
The target in assay [43] is CD28 (human) (UniProt P10747). As to the kind of experiment: flow cytometry, Jurkat/IL2 reporter cells (CD28), vs WT CD80 ECD-Fc (R&D).
Assay [44] concerns the target human CTLA-4 (human) (UniProt P16410). Briefly: flow cytometry, CHO cells expressing huCTLA4, vs WT CD80 ECD-Fc (R&D).
Target sequence in this assay (P16410 36-223): as above
Assay [45] concerns the target CD28 (human) (UniProt P10747). The source holds these as a separate data set.
In assay [46] the target is PD-L1 (human) (UniProt Q9NZQ7). This is another data set of the same source.

human PD-L1 (huPD-L1), on stably transduced CHO cells (human), sequence (Q9NZQ7 19-290): as the sequence (Q9NZQ7 19-290) above
human CTLA-4 (huCTLA4), on stably transduced CHO cells (human), sequence (P16410 36-223): as the sequence (P16410 36-223) above
WT CD80 ECD-Fc (inert) (Fc fusion), sequence (chain): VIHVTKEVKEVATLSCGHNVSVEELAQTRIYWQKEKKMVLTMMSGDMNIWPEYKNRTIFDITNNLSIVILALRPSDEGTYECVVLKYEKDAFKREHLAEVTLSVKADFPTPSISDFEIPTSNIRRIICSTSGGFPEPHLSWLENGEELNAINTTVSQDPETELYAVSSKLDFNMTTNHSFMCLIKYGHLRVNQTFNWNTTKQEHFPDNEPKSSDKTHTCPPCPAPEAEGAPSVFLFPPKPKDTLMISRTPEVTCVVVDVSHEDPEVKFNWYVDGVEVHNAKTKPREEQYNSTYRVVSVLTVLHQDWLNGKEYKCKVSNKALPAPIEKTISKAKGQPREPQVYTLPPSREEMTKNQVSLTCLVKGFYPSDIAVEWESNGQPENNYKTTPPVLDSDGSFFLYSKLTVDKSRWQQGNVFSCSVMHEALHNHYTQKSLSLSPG

With “CD80 E35D/M47V/N48K/V68M/K89N IgV-Fc, delta linker (Fc fusion)”, the IL2-luciferase reporter, fold increase in RLU over WT CD80-IgV-Fc at 5.0 nM in the assay with CD28 (human) [1] and with PD-L1 (human) [2] was 2.63 fold each time.
Regarding WT CD80 ECD-Fc (inert) (Fc fusion), the Jurkat/IL2 reporter RLU at 50 nM, CHO/OKT3 aAPC without PD-L1 with CD28 (human) [3] came out at 420 RLU. Besides, the MFI at 66.6 nM in the assay with CD28 (human) [4] was 3070 MFI.
Consider WT CD80 IgV-Fc (inert) (Fc fusion), for which the MFI at 66.6 nM came to 20700 MFI with human CTLA-4 (human) [5] and 1620 MFI in the assay with CD28 (human) [4]. This substance gave an MFI at 22.2 nM with PD-L1 (human) [6] of 1770 MFI. Further, the Jurkat/IL2 reporter RLU at 50 nM, K562/OKT3/PD-L1 aAPC is 566 RLU with CD28 (human) [7], 566 RLU with PD-L1 (human) [8], 206 RLU with CD28 (human) [10] and 206 RLU in the assay with PD-L1 (human) [11]. The Jurkat/IL2 reporter RLU at 50 nM, CHO/OKT3/PD-L1 aAPC with CD28 (human) [3] and in the assay with PD-L1 (human) [9] was 483 RLU throughout. The substance also came in with a Jurkat/IL2 reporter RLU at 50 nM, CHO/OKT3 aAPC without PD-L1 with CD28 (human) [3] of 479 RLU. Further, the IL-2 release, primary T cells + K562/OKT3/PD-L1, 100 nM with CD28 (human) [12] and with PD-L1 (human) [13] was 52 in each case.
On to “CD80 E35D/D46V/M47L/V68M/L85Q/E88D IgV-Fc, delta linker (Fc fusion)”, for which the IL2-luciferase reporter, fold increase in RLU over WT CD80-IgV-Fc at 5.0 nM with CD28 (human) [1] and with PD-L1 (human) [2] was 2.77 fold each time.
Take WT CD80 ECD-Fc (Fc fusion): the MFI at 33.3 nM is 52 MFI with PD-L1 (human) [14]; 58 MFI with PD-L1 (human) [15]; 31 MFI in the assay with CD28 (human) [16]; 30 MFI with CD28 (human) [16] (record 2); 46 MFI in the assay with CD28 (human) [17]. In addition, in the assay with CD28 (human) [18], the MFI at 66.6 nM was 24800.
Turning to “variant CD80 IgV-Fc E35D/T41S/N48T (Fc fusion)”, the Fold change to WT CD80 turned out to be 31.2 fold in assay [19], 1.1 fold in assay [20] and 15.8 fold in [25]. For the same substance, the MFI at 33.3 nM in assay [21] stood at 2190 MFI; in assay [23], 30300 MFI; in [24] it was 72.4 MFI. The Ratio of PDL1:CD28 in assay [22] is 30.
Consider Human IgG1 Isotype Control (antibody), for which the Relative Luminescence (RLU), Jurkat/IL2 reporter assay, at 100000 pM with CD28 (human) [26] was determined as 965 RLU. The MFI at 66.7 nM with PD-L1 (human) [27] amounted to 96.4; in the assay with CD28 (human) [16] it was 73.2; in the assay with human CTLA-4 (human) [28] it was 69.4.
Consider “variant CD80 IgV-Fc (inert) H18Y/E35D/M47V/V68M/A71G/D90G (Fc fusion)”, for which the Fold change to WT CD80 with human CTLA-4 (human) [29] amounted to 12.4 fold; with PD-L1 (human) [32], 316 fold; with CD28 (human) [33], 66.6 fold. For the same substance, the IL2-luciferase reporter, fold increase in RLU over WT CD80-IgV-Fc at 5.0 nM in the assay with CD28 (human) [30] and with PD-L1 (human) [31] was 4.8 fold in each case. Further, the figures for the MFI at 33.3 nM with PD-L1 (human) [27], with CD28 (human) [16] and with human CTLA-4 (human) [28] were 52200 MFI, 6790 MFI and 17200 MFI, respectively.
Regarding “CD80 R29D/Y31L/Q33H/K36G/M38I/T41A/M43R/M47T/L85R/K89N/A91T/F92P/K93V/R94L/I118V/T120S/I127T/T130A/K169E/H188D ECD-Fc (Fc fusion)”, the MFI with human CTLA-4 (human) [34] came to 2200; with PD-L1 (human) [35] it was 110000.
“variant CD80 IgV-Fc S44P/A71D (Fc fusion)” showed an MFI at 22.2 nM in the assay with PD-L1 (human) [36] of 6310.
Fc only: the MFI at 66.6 nM was determined as 5960 with human CTLA-4 (human) [37] and 2590 with CD28 (human) [38]. The MFI at 22.2 nM with PD-L1 (human) [39] stood at 4740.
For “variant CD80 IgV-Fc E35D/M42V/M47V/E52D/L85Q (Fc fusion)”, the figures for the MFI at 33.3 nM with human CTLA-4 (human) [40], in the assay with CD28 (human) [41] and in the assay with PD-L1 (human) [42] were 226000 MFI, 1290 MFI and 11900 MFI, respectively. Besides, the results for the Fold change to WT CD80 with CD28 (human) [43] and with human CTLA-4 (human) [44] were 0.07 fold and 1.44 fold, respectively.
With “CD80 E35D/M47V/L85M/R94Q IgV-Fc (Fc fusion)”, the IL2-luciferase reporter (RLU), fold increase over WT CD80-IgV-Fc at 5.0 nM with CD28 (human) [45] and with PD-L1 (human) [46] was 1.2 fold in each case.
Consider “variant CD80 IgV-Fc (inert) H18Y/A26Q/E35D/M47T/V68M/A71G/D90G (Fc fusion)”, for which the figures for the Fold change to WT CD80 with human CTLA-4 (human) [29], with PD-L1 (human) [32] and with CD28 (human) [33] were 12 fold, 148 fold and 66 fold, respectively. The IL2-luciferase reporter, fold increase in RLU over WT CD80-IgV-Fc at 5.0 nM with CD28 (human) [30] and in the assay with PD-L1 (human) [31] was 5.8 fold throughout. In addition, the MFI at 33.3 nM with PD-L1 (human) [27] is 24400 MFI; in the assay with CD28 (human) [16], 6730 MFI; with human CTLA-4 (human) [28], 16700 MFI.
